Experimental data published in patent US20250376505A1.
Positions count from the first letter of the chain named.

B1: C11P7 (antibody, V domains shown)
VH: EVQLVESGGGLVQPGGSLKLSCAASGFSLSNSEVHWVRQASGKGLEWIGRVRSRANRHATGYTESVNGRFTVSRDDSKNTASLQLESLKIEDTAVYYCTGVRGVISRYFAMDVWGQGTTVTVSS
VL: QSALTQPASVSGSPGQSITISCTGTSSDVGAYNYVSWYRLRPGKDPHLIIYDVSHRPAGVSNRFSGSKSGNTASLTISGLQAEDEDEYYCCSYAHRGTPLFGGGTKLTVL
B2: B9P6 (antibody, V domains shown)
VH: EVQLVESGGGLVQPGGSLRLSCAASGFTFRSYTMDWVRQAPGKGLEWVSCISGSSNHKYYADSVRGRFTISRDNAKNSLFLQMNSLRAEDSAVYYCAREDDILTPLYGMDVWGPGTTVTVSS
VL: EIVLTQSPDTLSLSPGARATLSCRASQSVRSNYLAWYQQKPGQAPRLLIYGASSRATAIPDRFSGSGSGTDFTLTITRLEPEDFAVYYCHQYGSSPRTFGQGTKVEIK
B3: B2P8 (antibody, V domains shown)
VH: QVQLQESGPGLVKPSETLSLTCTVSGGSIRNSYWSWIRQPPGKGLEWIGYIYYTGTTNSNPSLKSRVTISVHMSQNQISLKLNSVTPADTAVYYCAQGGGSGDLHYWGQGTLVTVSS
VL: B2 VL with G93A
B4: E11P6 (antibody, V domains shown)
VH: B2 VH with T33S, C50Y, H57Q, A61T
VL: B2 VL with F72L, G93A
B5: G11P1 (antibody, V domains shown)
VH: B2 VH with T33S, C50Y, H57Q, A61T
VL: B2 VL with G93A
B6: B10P1 (antibody, V domains shown)
VH: EVQLSESGGGLVQPGGSLRLSCAASGFTFSSYAMSWVRQAPGKGLEWVSSLTGSGGSTYYRDSVKGRFTIFRDNSKKTLYMQMNSLRAEDTAVYYCAKEGAYSYDFWYFDLWGRGTLVTVSS
VL: EIVLTQSPGTLSLSPGERATLSCRASQTVSGNYLAWYQQKPGQSPSLLIYGASSRATGIPDRFTGSGSGTDFTLTISRLEPADFAVYYCQQYGRPLTFGGGTKVDIK
B7: C4P7 (antibody, V domains shown)
VH: B6 VH with S5L
VL: B6 VL with D105E
B8: D7P6 (antibody, V domains shown)
VH: EVQLLESGGGLVQPGGSLRLSCAASGFPFSSYAMSWVRQAPGKGLEWVSGITGSASGTYYADSVKGRFTISRDNSKNTLYLRMNSLRAEDTAVYYCAKEGAYSYDYWYFDLWGRGTLVTVSS
VL: EIVLTQSPGTLSLSPGERATLSCRASQSVSGSYLAWYQQKPGQTPRLLIYGASSRATGIPDRFSGSGSGTDFTLTINRLDPEDFGVYYCQQYGSLVTFGGGSKVEIK
B9: B8P7 (antibody, V domains shown)
VH: QVQLQESGPGLVRPSETLSLTCTVSGGSISPYYWNWIRQPPGKGLEWIGYIYYSGNTKYNPSLKSRVTISVDTSKNQFSLKLSSVSAADTAVYYCARDSCSGTCYLGDNWFDPWGQGTLVTVSS
VL: QSVLTQPPSVSGAPGQRVTISCTGSSSNIGANNDVHWYQHLPGTAPKLLIYGNNHRPSGVPDRFSGSKSGTSASLAITGLQAEDEADYYCQSYDSSLSTSKVFGGGTKLTVL
B10: C4P6 (antibody, V domains shown)
VH: B9 VH with D108G
VL: B9 VL
B11: G5P1 (antibody, V domains shown)
VH: B3 VH with E16G, Q75R
VL: NFMLTQPASVSGSPGQSITISCTGTRSDVGGYNYVSWYQQHPGKAPKLMIYDISSRPSGVSNRFSASKSGNTASLTISGLQAEDEADYYCISFATGYTWVFGGGTRLTVL
B12: E7P5 (antibody, V domains shown)
VH: B3 VH with P40S, T56S, V67L, I69V
VL: B11 VL with N1Q, F2S, M3A, M49I, R106S

These binders were tested against VP1 pentamer of BKV genotype I (truncated VP1, residues 31 to 301, Dunlop sequence with Cys 104 replaced by Ser) (BK virus genotype I (Dunlop)) (UniProt P03088) (assay: ELISA, coated VP1 pentamer).
VP1 pentamer of BKV genotype I (truncated VP1, residues 31 to 301, Dunlop sequence with Cys 104 replaced by Ser) (BK virus genotype I (Dunlop)), sequence (P03088 31-301): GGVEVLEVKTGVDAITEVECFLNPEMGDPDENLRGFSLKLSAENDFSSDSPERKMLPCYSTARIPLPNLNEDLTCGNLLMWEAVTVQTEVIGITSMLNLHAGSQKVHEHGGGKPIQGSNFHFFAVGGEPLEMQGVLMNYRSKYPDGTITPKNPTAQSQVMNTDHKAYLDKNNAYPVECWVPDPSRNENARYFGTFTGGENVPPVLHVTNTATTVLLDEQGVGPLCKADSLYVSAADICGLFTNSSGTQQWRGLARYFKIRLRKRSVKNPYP

Question: With B1 as the binder, how does the EC50 read?
Answer: The EC50 was 6 µg/mL.

Question: For B2, which EC50 is on record?
Answer: The EC50 was 0.12 µg/mL.

Question: Which EC50 does the source give for B3 here?
Answer: Its EC50 is 10 µg/mL.

Question: With B4 as the binder, how does the EC50 read?
Answer: Its EC50 is 0.6 µg/mL.

Question: For B5, which EC50 is on record?
Answer: Its EC50 is 0.7 µg/mL.

Question: How did the EC50 turn out when B6 was run?
Answer: Its EC50 is 7 µg/mL.

Question: How did the EC50 turn out when B7 was run?
Answer: Its EC50 is 5 µg/mL.

Question: With B8 as the binder, how does the EC50 read?
Answer: Its EC50 is 6 µg/mL.

Question: B9 was tested. Which EC50 did it give?
Answer: The EC50 was 0.05 µg/mL.

Question: Which EC50 does the source give for B10 here?
Answer: The EC50 was 1.5 µg/mL.

Question: B11 was tested. Which EC50 did it give?
Answer: The EC50 was 7 µg/mL.

Question: Which EC50 does the source give for B12 here?
Answer: Its EC50 is 0.15 µg/mL.
